We go through one molecule from publication PMC4329827 (Meta Gene, 2015).

The assay concerns the target T1, MOCS2B wild-type, large subunit of MPT synthase (human, UniProt O96007 1-188).
T1 sequence (looked up): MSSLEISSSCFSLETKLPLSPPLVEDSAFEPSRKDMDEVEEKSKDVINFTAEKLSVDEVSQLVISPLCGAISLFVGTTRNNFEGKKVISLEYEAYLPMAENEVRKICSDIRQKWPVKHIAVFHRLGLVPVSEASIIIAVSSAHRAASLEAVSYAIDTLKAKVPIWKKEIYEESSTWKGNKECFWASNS
The assay can be described thus: ITC. On the technique in general: ITC needs no label: the signal is the heat of the interaction.

B1: MOCS2A, small subunit of MPT synthase (activated, thiocarboxylated) (natural protein, human, UniProt O96033 1-88, looked up)
chain: MVPLCQVEVLYFAKSAEITGVRSETISVPQEIKALQLWKEIETRHPGLADVRNQIIFAVRQEYVELGDQLLVLQPGDEIAVIPPISGG
modifications: thiocarboxylated C-terminal tail
Molecule B1 came in with an equilibrium dissociation constant (Kd) of 360 ± 47 nM.

For orientation: Kd means a measure of binding affinity in units of concentration. High values mean lower affinity, low ones higher affinity.
